The values that follow are results of earlier work, collected in PMC5540906.

Where “and” joins values, the source holds several entries; their conditions need not be identical. Identical values can stand only once.

Data set [1] deals with DnaK (Thermus thermophilus) (UniProt Q72IK5).
The target of data set [2] is ClpP tetradecamer (Escherichia coli) (UniProt P0A6G7). In words: activity measurements.
Chain of UniProt P0A6G7 (P0A6G7 15-207): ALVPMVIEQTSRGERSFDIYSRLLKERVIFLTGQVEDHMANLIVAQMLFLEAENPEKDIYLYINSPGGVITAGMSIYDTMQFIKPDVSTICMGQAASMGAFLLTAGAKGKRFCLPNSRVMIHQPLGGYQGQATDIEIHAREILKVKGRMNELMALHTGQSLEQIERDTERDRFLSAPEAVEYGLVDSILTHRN

Chain of UniProt Q72IK5 (Q72IK5 whole entry): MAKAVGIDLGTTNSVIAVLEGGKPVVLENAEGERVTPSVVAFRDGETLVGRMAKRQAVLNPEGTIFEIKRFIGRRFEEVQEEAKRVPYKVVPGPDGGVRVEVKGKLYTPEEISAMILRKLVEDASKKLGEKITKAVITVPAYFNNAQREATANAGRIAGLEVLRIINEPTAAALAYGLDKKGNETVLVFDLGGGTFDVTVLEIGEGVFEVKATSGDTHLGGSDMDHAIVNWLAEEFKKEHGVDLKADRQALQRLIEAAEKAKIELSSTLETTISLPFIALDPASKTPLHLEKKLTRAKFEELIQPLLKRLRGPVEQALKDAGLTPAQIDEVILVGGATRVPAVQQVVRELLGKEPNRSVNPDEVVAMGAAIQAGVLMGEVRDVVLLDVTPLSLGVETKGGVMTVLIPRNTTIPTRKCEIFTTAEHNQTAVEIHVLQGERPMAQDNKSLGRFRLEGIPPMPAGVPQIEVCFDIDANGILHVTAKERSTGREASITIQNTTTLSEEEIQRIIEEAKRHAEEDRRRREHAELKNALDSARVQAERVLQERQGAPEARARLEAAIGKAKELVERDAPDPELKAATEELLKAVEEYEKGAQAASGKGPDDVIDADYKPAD

As to ClpB (from UniProt Q72IK9), the Kd in data set [1] was 17 µM and 25 µM.

Take ClpA hexamer (from UniProt P0ABH9): the dissociation constant Kd in data set [2] is 4 nM.

What is called Kd is the constant that tells how readily two partners part at equilibrium.
